This is an account of results in the supplement of paper PMC11246515.

This series is described as follows: total protein half-life in vivo (active degradation + dilution); higher = more stable protein.
[1] abbreviates: E. coli NCM3722 delta-clpP delta-lon delta-hslV, growth: N-lim chemostat, doubling time 6 h.
[2] abbreviates: E. coli NCM3722 delta-clpP, growth: N-lim chemostat, doubling time 6 h.
Where [3] appears, read: E. coli NCM3722 delta-hslV, growth: N-lim chemostat, doubling time 6 h.
[4] abbreviates: E. coli NCM3722 delta-lon, growth: N-lim chemostat, doubling time 6 h.
The mark [5] stands for this setting: E. coli NCM3722 delta-smpB, growth: N-lim chemostat, doubling time 6 h.
Setting [6] is: wild type E. coli NCM3722, growth: C-lim chemostat, doubling time 3 h.
[7] abbreviates: wild type E. coli NCM3722, growth: C-lim chemostat, doubling time 6 h.
[8] abbreviates: wild type E. coli NCM3722, growth: C-lim chemostat, doubling time 12 h.
[9] abbreviates: wild type E. coli NCM3722, growth: N-lim chemostat, doubling time 6 h.
[10] abbreviates: wild type E. coli NCM3722, growth: N-lim chemostat, doubling time 12 h.
[11] abbreviates: wild type E. coli NCM3722, growth: P-lim chemostat, doubling time 6 h.
Setting [12] is: wild type E. coli NCM3722, growth: P-lim chemostat, doubling time 12 h.

± gives the standard deviation of the averaged measurements.

“MNKVAQYYRELVASLSERLRNGERDIDALVEQARERVIKTGELTRTEVDELTRAVRRDLEEFAMSYEESLKEESDSVFMRVIKESLWQELADITDKTQLEWREVFQDLNHHGVYHSGEVVGLGNLVCEKCHFHLPIYTPEVLTLCPKCGHDQFQRRPFEP [P0AAT9]”: the “total protein half-life in vivo” value reads like this: under setting [1], 5.96 ± 0.99 h; under setting [2], 4.62 ± 0.043 h; under setting [3], 4.74 ± 0.38 h; under setting [4], 5.364 ± 0.034 h; under setting [5], 4.05 ± 0.48 h; under setting [6], 2.81 ± 0.34 h. Also, the “total protein half-life in vivo” value stood at 4.632 ± 0.011 h under setting [7]; 8.29 ± 0.47 h under setting [8]; 3.87 ± 0.6 h under setting [9]; 10.7 ± 3.1 h under setting [10]; 5.95 ± 1.4 h under setting [11]; 10.9 ± 0.48 h under setting [12].
Regarding “MAKQDYYEILGVSKTAEEREIRKAYKRLAMKYHPDRNQGDKEAEAKFKEIKEAYEVLTDSQKRAAYDQYGHAAFEQGGMGGGGFGGGADFSDIFGDVFGDIFGGGRGRQRAARGADLRYNMELTLEEAVRGVTKEIRIPTLEECDVCHGSGAKPGTQPQTCPTCHGSGQVQMRQGFFAVQQTCPHCQGRGTLIKDPCNKCHGHGRVERSKTLSVKIPAGVDTGDRIRLAGEGEAGEHGAPAGDLYVQVQVKQHPIFEREGNNLYCEVPINFAMAALGGEIEVPTLDGRVKLKVPGETQTGKLFRMRGKGVKSVRGGAQGDLLCRVVVETPVGLNERQKQLLQELQESFGGPTGEHNSPRSKSFFDGVKKFFDDLTR”, the “total protein half-life in vivo” value under setting [2] came to 6.07 ± 0.65 h; the “total protein half-life in vivo” value under setting [3] was 4.941 ± 0.031 h; the “total protein half-life in vivo” value under setting [4] was found to be 6.155 ± 0.042 h; the “total protein half-life in vivo” value under setting [5] stood at 4.51 ± 0.36 h; the “total protein half-life in vivo” value under setting [6] was 2.67 ± 0.034 h; the “total protein half-life in vivo” value under setting [7] is 4.97 ± 0.22 h. In addition, the “total protein half-life in vivo” value was 9.44 ± 0.52 h under setting [8]; 4.9 ± 0.55 h under setting [9]; 8.73 ± 0.55 h under setting [10]; 5.193 ± 0.045 h under setting [11]; 11.41 ± 0.11 h under setting [12].
Consider “MTPEHLPTEQYEAQLAEKVVRLQSMMAPFSDLVPEVFRSPVSHYRMRAEFRIWHDGDDLYHIIFDQQTKSRIRVDSFPAASELINQLMTAMIAGVRNNPVLRHKLFQIDYLTTLSNQAVVSLLYHKKLDDEWRQEAEALRDALRAQNLNVHLIGRATKTKIELDQDYIDERLPVAGKEMIYRQVENSFTQPNAAMNIQMLEWALDVTKGSKGDLLELYCGNGNFSLALARNFDRVLATEIAKPSVAAAQYNIAANHIDNVQIIRMAAEEFTQAMNGVREFNRLQGIDLKSYQCETIFVDPPRSGLDSETEKMVQAYPRILYISCNPETLCKNLETLSQTHKVERLALFDQFPYTHHMECGVLLTAK”, for which the “total protein half-life in vivo” value came to 6.08 ± 1.6 h under setting [1]; 5.19 ± 0.62 h under setting [2]; 4.85 ± 0.33 h under setting [3]; 5.53 ± 0.082 h under setting [4]; 5.35 ± 0.35 h under setting [5]; 6.89 ± 0.74 h under setting [7]. For the same sequence, the “total protein half-life in vivo” value under setting [8] was found to be 12.6 ± 2.2 h; the “total protein half-life in vivo” value under setting [9] is 4.83 ± 0.21 h; the “total protein half-life in vivo” value under setting [10] is 11.3 ± 2.8 h; the “total protein half-life in vivo” value under setting [11] stood at 5.56 ± 0.39 h; the “total protein half-life in vivo” value under setting [12] is 13.8 ± 1.9 h.
For “MDRIIQSPGKYIQGADVINRLGEYLKPLAERWLVVGDKFVLGFAQSTVEKSFKDAGLVVEIAPFGGECSQNEIDRLRGIAETAQCGAILGIGGGKTLDTAKALAHFMGVPVAIAPTIASTDAPCSALSVIYTDEGEFDRYLLLPNNPNMVIVDTKIVAGAPARLLAAGIGDALATWFEARACSRSGATTMAGGKCTQAALALAELCYNTLLEEGEKAMLAAEQHVVTPALERVIEANTYLSGVGFESGGLAAAHAVHNGLTAIPDAHHYYHGEKVAFGTLTQLVLENAPVEEIETVAALSHAVGLPITLAQLDIKEDVPAKMRIVAEAACAEGETIHNMPGGATPDQVYAALLVADQYGQRFLQEWE [P0A9S5]”, the “total protein half-life in vivo” value reads like this: under setting [1], 4.72 ± 0.17 h; under setting [2], 4.2 ± 0.78 h; under setting [3], 4.13 ± 0.15 h; under setting [4], 4.432 ± 0.034 h; under setting [5], 3.52 ± 0.49 h; under setting [6], 3.07 ± 0.084 h. The “total protein half-life in vivo” value reads like this: under setting [7], 5.75 ± 0.4 h; under setting [8], 11.7 ± 0.7 h; under setting [9], 4.8 ± 0.91 h; under setting [10], 6.5 ± 0.44 h; under setting [11], 6.33 ± 0.13 h; under setting [12], 13 ± 0.35 h.
As to “MNIIAIMGPHGVFYKDEPIKELESALVAQGFQIIWPQNSVDLLKFIEHNPRICGVIFDWDEYSLDLCSDINQLNEYLPLYAFINTHSTMDVSVQDMRMALWFFEYALGQAEDIAIRMRQYTDEYLDNITPPFTKALFTYVKERKYTFCTPGHMGGTAYQKSPVGCLFYDFFGGNTLKADVSISVTELGSLLDHTGPHLEAEEYIARTFGAEQSYIVTNGTSTSNKIVGMYAAPSGSTLLIDRNCHKSLAHLLMMNDVVPVWLKPTRNALGILGGIPRREFTRDSIEEKVAATTQAQWPVHAVITNSTYDGLLYNTDWIKQTLDVPSIHFDSAWVPYTHFHPIYQGKSGMSGERVAGKVIFETQSTHKMLAALSQASLIHIKGEYDEEAFNEAFMMHTTTSPSYPIVASVETAAAMLRGNPGKRLINRSVERALHFRKEVQRLREESDGWFFDIWQPPQVDEAECWPVAPGEQWHGFNDADADHMFLDPVKVTILTPGMDEQGNMSEEGIPAALVAKFLDERGIVVEKTGPYNLLFLFSIGIDKTKAMGLLRGLTEFKRSYDLNLRIKNMLPDLYAEDPDFYRNMRIQDLAQGIHKLIRKHDLPGLMLRAFDTLPEMIMTPHQAWQRQIKGEVETIALEQLVGRVSANMILPYPPGVPLLMPGEMLTKESRTVLDFLLMLCSVGQHYPGFETDIHGAKQDEDGVYRVRVLKMAG”, the “total protein half-life in vivo” value was 5.56 ± 0.19 h under setting [2]; 5.32 ± 0.2 h under setting [3]; 5.36 ± 0.26 h under setting [4]; 5.38 ± 0.089 h under setting [5]; 3.21 ± 0.1 h under setting [6]; 7.21 ± 0.98 h under setting [7]. Also, the “total protein half-life in vivo” value under setting [8] is 10.7 ± 3.7 h; the “total protein half-life in vivo” value under setting [9] came to 6.16 ± 1.5 h; the “total protein half-life in vivo” value under setting [10] turned out to be 10.7 ± 0.83 h; the “total protein half-life in vivo” value under setting [11] was 6.88 ± 1.5 h; the “total protein half-life in vivo” value under setting [12] was 11.92 ± 0.053 h.
In the case of “MSKKIAVLITDEFEDSEFTSPADEFRKAGHEVITIEKQAGKTVKGKKGEASVTIDKSIDEVTPAEFDALLLPGGHSPDYLRGDNRFVTFTRDFVNSGKPVFAICHGPQLLISADVIRGRKLTAVKPIIIDVKNAGAEFYDQEVVVDKDQLVTSRTPDDLPAFNREALRLLGA”, the “total protein half-life in vivo” value under setting [1] turned out to be 6.07 ± 1.3 h; the “total protein half-life in vivo” value under setting [2] stood at 4.34 ± 0.18 h; the “total protein half-life in vivo” value under setting [3] came to 5.59 ± 1.4 h; the “total protein half-life in vivo” value under setting [4] stood at 5.74 ± 0.21 h; the “total protein half-life in vivo” value under setting [5] was 4.51 ± 0.087 h; the “total protein half-life in vivo” value under setting [6] is 3.22 ± 0.3 h. The “total protein half-life in vivo” value under setting [7] worked out at 5.32 ± 0.083 h; the “total protein half-life in vivo” value under setting [8] is 9.27 ± 0.35 h; the “total protein half-life in vivo” value under setting [9] came out at 4.72 ± 0.18 h; the “total protein half-life in vivo” value under setting [10] was found to be 7.76 ± 0.18 h; the “total protein half-life in vivo” value under setting [11] is 5.12 ± 0.29 h; the “total protein half-life in vivo” value under setting [12] was determined as 10.6 ± 1.1 h.
